Laboratory results reported in IntAct's records for PubMed 17704763.

B1: Adagio protein 1 (Arabidopsis thaliana (Mouse-ear cress)), Q94BT6 (parent)
chain: MEWDSGSDLSADDASSLADDEEGGLFPGGGPIPYPVGNLLHTAPCGFVVTDAVEPDQPIIYVNTVFEMVTGYRAEEVLGGNCRFLQCRGPFAKRRHPLVDSMVVSEIRKCIDEGIEFQGELLNFRKDGSPLMNRLRLTPIYGDDDTITHIIGIQFFIETDIDLGPVLGSSTKEKSIDGIYSALAAGERNVSRGMCGLFQLSDEVVSMKILSRLTPRDVASVSSVCRRLYVLTKNEDLWRRVCQNAWGSETTRVLETVPGAKRLGWGRLARELTTLEAAAWRKLSVGGSVEPSRCNFSACAVGNRVVLFGGEGVNMQPMNDTFVLDLNSDYPEWQHVKVSSPPPGRWGHTLTCVNGSNLVVFGGCGQQGLLNDVFVLNLDAKPPTWREISGLAPPLPRSWHSSCTLDGTKLIVSGGCADSGVLLSDTFLLDLSIEKPVWREIPAAWTPPSRLGHTLSVYGGRKILMFGGLAKSGPLKFRSSDVFTMDLSEEEPCWRCVTGSGMPGAGNPGGVAPPPRLDHVAVNLPGGRILIFGGSVAGLHSASQLYLLDPTEDKPTWRILNIPGRPPRFAWGHGTCVVGGTRAIVLGGQTGEEWMLSELHELSLASYLT
partner: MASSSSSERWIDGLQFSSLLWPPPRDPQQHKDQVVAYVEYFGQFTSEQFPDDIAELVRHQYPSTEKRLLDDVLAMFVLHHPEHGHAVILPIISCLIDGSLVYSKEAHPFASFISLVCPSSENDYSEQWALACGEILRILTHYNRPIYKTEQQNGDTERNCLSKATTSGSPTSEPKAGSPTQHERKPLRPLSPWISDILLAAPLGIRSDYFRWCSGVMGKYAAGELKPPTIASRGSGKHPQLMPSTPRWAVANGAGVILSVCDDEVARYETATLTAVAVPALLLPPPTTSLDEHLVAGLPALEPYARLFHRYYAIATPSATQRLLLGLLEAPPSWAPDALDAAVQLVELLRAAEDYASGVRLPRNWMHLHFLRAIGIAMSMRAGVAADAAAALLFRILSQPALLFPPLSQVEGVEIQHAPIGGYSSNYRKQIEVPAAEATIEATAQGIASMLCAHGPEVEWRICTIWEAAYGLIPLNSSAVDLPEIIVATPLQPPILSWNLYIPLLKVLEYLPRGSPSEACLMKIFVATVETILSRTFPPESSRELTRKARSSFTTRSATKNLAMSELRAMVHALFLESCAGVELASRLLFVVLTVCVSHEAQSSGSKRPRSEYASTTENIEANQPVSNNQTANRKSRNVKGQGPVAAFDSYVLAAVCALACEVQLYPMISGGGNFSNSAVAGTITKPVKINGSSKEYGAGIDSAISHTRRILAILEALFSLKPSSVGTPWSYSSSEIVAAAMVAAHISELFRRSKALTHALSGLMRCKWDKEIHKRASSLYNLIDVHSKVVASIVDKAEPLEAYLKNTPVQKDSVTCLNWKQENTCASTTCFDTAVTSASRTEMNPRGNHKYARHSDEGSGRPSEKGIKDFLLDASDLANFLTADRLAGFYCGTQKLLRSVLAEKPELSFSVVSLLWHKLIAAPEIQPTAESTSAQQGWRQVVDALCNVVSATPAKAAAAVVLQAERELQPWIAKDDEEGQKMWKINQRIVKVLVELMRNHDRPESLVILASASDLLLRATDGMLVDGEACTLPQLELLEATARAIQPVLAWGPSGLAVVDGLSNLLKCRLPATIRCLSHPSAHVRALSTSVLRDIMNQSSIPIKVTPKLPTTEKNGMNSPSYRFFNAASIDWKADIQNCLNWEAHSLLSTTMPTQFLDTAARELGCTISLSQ

Variants of: B1
Conditions: with gigan_arath GI

effect of a mutation on the interaction | Variant
decreasing interaction strength | G119D
decreasing interaction strength | C82A
disrupting interaction strength | G46E
